According to patent US20230374114A1 (published 2023):
Where two headings read alike, the source gives them in different places.

B1: Ab 12 scFv-Fc (S1-R3-T1-H7) (scFv, V domains shown)
VH: EVQLVESGPGVVSPSATLFLTCSVSGGSIRTHSWNWIRQPPGKPLEWIGFIHHSGATNKNPSLKSRVTISSDTSKNEFSLTLTSVTAADTAVYYCARGPGILSYWSRGTLVTVSS
VL: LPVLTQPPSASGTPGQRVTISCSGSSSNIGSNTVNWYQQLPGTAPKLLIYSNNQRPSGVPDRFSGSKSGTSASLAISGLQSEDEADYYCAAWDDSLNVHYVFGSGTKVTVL
B2: Ab 28 scFv-Fc (scFv, V domains shown)
VH: QVTLKESGPGLVNPSETLSLTCTVSGASISNSFWSWIRQSPGKGLEWIGYTSYSGNSIYNPSLKSRLTMSIDTSKNQLSLNLRSLTAADTAVYYCARREWIKGHFDYWGQGTLVTVSS
VL: NFMLTQPHSVSESPGKTVTISCTGSGGSIASNYVQWYQQRPGSAPTTVIYEDNQRPSGVPDRFSGSIDSSSNSASLTISGLKTEDEADYYCQSYDSSNPVVFGGGTKLTVL
B3: Ab_17 (scFv, V domains shown)
VH: QVQLVQSGGGVVQPGRSLRLSCAASGFTFDDYAMHWVRQVPGKGLEWVSGIDWNSGVIGYADSVKGRFTISRDNVKNSLYLQMNSLRTEDSALYYCAKDIGPGGSGSYYAFDIWGQGTTVTVSS
VL: QSALTQPASVSGSPGQSITISCTGTSSDVGGSKYVSWYQQHPGKAPKVMIYDVTKRPSGVPDRFSGSKSGNTASLTISGLQAEDEADYYCAAWDDSLNGVVFGGGTKLTVL
B4: Ab 23 scFv-Fc (scFv, V domains shown)
VH: EVQLVQSGAEVKKPGSSVKVSCRSSGGTFSTYGITWVRQAPGQGLEWMGRIIPSLGIPNYAQKFQGRVTITADTSVSTAWMELSSLESDDTAIYYCARENIDLATNDFWGQGTLVTVSS
VL: QSALTQPPSASGSPGQSVTISCTGTSRDIGAYGYVSWYQQVPGKAPKLIIYEVRNRPSGVSSRFSGSKSGNTASLTISGLQAEDEADYYCSSYTSSSTLDVVFGGGTKLTVL

How the values were obtained:
Test in all cases: BLI
[1] = molecular target: T1, Biotinylated SARS-CoV-2 S1 protein (ACRO, S1N-C82E8) (UniProt P0DTC2 16-685)
[2] = molecular target: T1, Biotinylated SARS-CoV-2 S1 protein …; remark: listed apart in the source
[3] = molecular target: T1, Biotinylated SARS-CoV-2 S1 protein …; remark: listed apart in the source
[4] = molecular target: T1, Biotinylated SARS-CoV-2 S1 protein …; remark: listed apart in the source
[5] = molecular target: T1, Biotinylated SARS-CoV-2 S1 protein …; remark: listed apart in the source
[6] = molecular target: T1, Biotinylated SARS-CoV-2 S1 protein …; remark: listed apart in the source

Row | Binder | Kd [1] [nM] | Kd [2] [nM] | Kd [3] [nM] | Kd [4] [nM] | Kd [5] [nM] | Kd [6] [nM]
1 | B1 | < 0.001 | < 0.001 | < 0.001 | < 0.001 | < 0.001 | 
2 | B2 |  |  |  |  | < 0.001 | < 0.001
3 | B3 |  |  |  |  | 0.716 | 0.716
4 | B4 |  |  |  |  | 0.338 | 0.338
